In the RNAGym collection of RNA variant scans (doi:10.7554/elife.80360):

B1: CPEB3 Ribozyme (parent)
chain: GGGGGCCACAGCAGAAGCGUUCACGUCGCGGCCCCUGUCAGAUUCUGGUGAAUCUGCGAAUUCUGCUGU

Variants of: B1
Experiment: self-cleavage, relative activity (ratio to wild type); higher = more cleavage; co-transcriptional

Going from U26G U67G to U26G U67C, the self-cleavage falls from 0.968 to 0.91.

Compared with U26G U67A, U26C C66G is lower in self-cleavage: 0.854 for the first, 0.692 for the second.

Compared with U26C C66A, C27A U69C is higher in self-cleavage: 0.585 for the first, 0.955 for the second.

Compared with C27A U69G, C27A U69A is higher in self-cleavage: 0.825 for the first, 0.843 for the second.

First: C27A G31C
Second: C27G C63G
The self-cleavage of the first is lower: 0.181 for the first, 0.225 for the second.

Compared with C27G C63U, U26G G31A is higher in self-cleavage: 0.209 for the first, 0.555 for the second.

First: C27A A40C
Second: C27A A40G
The self-cleavage of the first is lower: 0.256 for the first, 0.452 for the second.

Compared with C27A A40U, U26G C27U is higher in self-cleavage: 0.304 for the first, 0.605 for the second.

First: U26G C27G
Second: C27G A51U
The self-cleavage of the first is higher: 0.34 for the first, 0.15 for the second.

First: C27G A51G
Second: U26G U61G
The self-cleavage of the first is lower: 0.217 for the first, 0.558 for the second.

First: U26G U64C
Second: U26G U64A
The self-cleavage of the first is higher: 0.756 for the first, 0.692 for the second.

Compared with C27G, C27A is higher in self-cleavage: 0.197 for the first, 0.711 for the second.

Going from U26C G68U to U26C G68A, the self-cleavage rises from 1.01 to 1.03.

Compared with C27G U36A, U26G U43A is higher in self-cleavage: 0.18 for the first, 0.766 for the second.

Compared with U26G U43C, U26G U43G is lower in self-cleavage: 0.863 for the first, 0.801 for the second.

Compared with U26C G31C, U26C G31A is higher in self-cleavage: 0.193 for the first, 0.838 for the second.

First: U26C G31U
Second: U26C C54G
The self-cleavage of the first is lower: 0.658 for the first, 0.871 for the second.

Compared with U26C C54U, U26C C54A is lower in self-cleavage: 1.03 for the first, 0.92 for the second.

First: C27G C29G
Second: C27A U61C
The self-cleavage of the first is higher: 0.208 for the first, 0.191 for the second.

First: C27A U61G
Second: C27G G31A
The self-cleavage of the first is higher: 0.367 for the first, 0.174 for the second.

Compared with C27G G31C, U26C U49C is higher in self-cleavage: 0.174 for the first, 0.932 for the second.

First: U26C U49G
Second: U26G C63U
The self-cleavage of the first is higher: 1.01 for the first, 0.893 for the second.

First: U26G C63A
Second: U26C C34G
The self-cleavage of the first is higher: 0.581 for the first, 0.492 for the second.

Going from U26G C29U to U26G C29G, the self-cleavage rises from 0.318 to 0.414.

Going from C27A C45A to C27A C45G, the self-cleavage rises from 0.504 to 0.578.

First: U26C U43G
Second: U26G U49G
The self-cleavage of the first is lower: 0.735 for the first, 0.907 for the second.

First: U26G U49C
Second: U26C C63G
The self-cleavage of the first is higher: 0.924 for the first, 0.599 for the second.

Compared with U26C C63U, U26C C63A is lower in self-cleavage: 1 for the first, 0.614 for the second.

First: U26C G56C
Second: U26C G56U
The self-cleavage of the first is lower: 0.634 for the first, 0.854 for the second.

Going from U26G G48U to C27G A42C, the self-cleavage falls from 0.923 to 0.177.

First: C27G A42G
Second: C27A C57A
The self-cleavage of the first is lower: 0.15 for the first, 0.189 for the second.

Compared with C27A C57U, U26G C33U is higher in self-cleavage: 0.173 for the first, 0.833 for the second.

First: U26G C33G
Second: U26G C33A
The self-cleavage of the first is lower: 0.437 for the first, 0.827 for the second.

Compared with U26G C32A, U26G C32G is lower in self-cleavage: 0.552 for the first, 0.234 for the second.

Going from U26C G30U to U26C G30A, the self-cleavage rises from 0.304 to 0.749.

Going from C27A A60U to C27A A60G, the self-cleavage rises from 0.249 to 0.253.

Compared with U26G C45A, U26G C45G is lower in self-cleavage: 0.951 for the first, 0.87 for the second.

Going from C27A U53C to C27A U53A, the self-cleavage rises from 0.213 to 0.344.

Compared with C27A C34A, C27A C34G is higher in self-cleavage: 0.164 for the first, 0.219 for the second.

Going from C27A C34U to U26G G41A, the self-cleavage rises from 0.52 to 0.539.

First: U26G G41C
Second: U26C C57G
The self-cleavage of the first is higher: 0.561 for the first, 0.268 for the second.

Compared with U26C C57A, U26G U36C is higher in self-cleavage: 0.209 for the first, 0.42 for the second.

Compared with U26G U36G, C27A A51U is higher in self-cleavage: 0.198 for the first, 0.577 for the second.

First: U26C C33A
Second: U26C C33G
The self-cleavage of the first is higher: 0.826 for the first, 0.474 for the second.

Compared with U26G C66G, C27G G50C is lower in self-cleavage: 0.693 for the first, 0.141 for the second.

Going from C27G G50A to C27G G50U, the self-cleavage rises from 0.17 to 0.175.

First: U26G U55G
Second: U26G C35A
The self-cleavage of the first is higher: 0.404 for the first, 0.184 for the second.

Compared with U26G C35G, U26G G37A is lower in self-cleavage: 0.241 for the first, 0.21 for the second.

First: U26G G37U
Second: U26G G65C
The self-cleavage of the first is lower: 0.185 for the first, 0.646 for the second.

First: U26G G65A
Second: U26G U53A
The self-cleavage of the first is lower: 0.643 for the first, 0.782 for the second.

Going from U26G U53C to U26G U53G, the self-cleavage rises from 0.768 to 0.778.

Going from C27A C33U to C27A C33A, the self-cleavage falls from 0.539 to 0.288.

Compared with C27A C33G, U26C U53C is higher in self-cleavage: 0.224 for the first, 0.882 for the second.

Compared with U26G G28C, C27G G58C is higher in self-cleavage: 0.133 for the first, 0.231 for the second.

Compared with C27G G58U, C27A C35A is higher in self-cleavage: 0.193 for the first, 0.209 for the second.

Compared with C27A C35U, C27G C45G is lower in self-cleavage: 0.441 for the first, 0.144 for the second.

Going from C27A C39A to C27A C39G, the self-cleavage rises from 0.205 to 0.346.

Going from C27A C39U to C27G U44G, the self-cleavage falls from 0.339 to 0.155.

Going from U26G G50A to U26G G50C, the self-cleavage rises from 0.927 to 0.962.

First: U26G G50U
Second: U26G U62C
The self-cleavage of the first is higher: 0.928 for the first, 0.674 for the second.

Going from U26G G68A to U26G G68U, the self-cleavage falls from 1.01 to 0.968.

Compared with U26G G68C, C27G C57A is lower in self-cleavage: 0.932 for the first, 0.131 for the second.

Compared with C27G C57G, C27G U43C is higher in self-cleavage: 0.175 for the first, 0.239 for the second.

Compared with U26G A40U, U26G A40C is lower in self-cleavage: 0.602 for the first, 0.395 for the second.

First: U26G A40G
Second: C27G C39U
The self-cleavage of the first is higher: 0.75 for the first, 0.138 for the second.

Compared with U26C U62C, U26C U62A is higher in self-cleavage: 0.732 for the first, 0.832 for the second.

Compared with C27A C29G, C27A G47U is higher in self-cleavage: 0.195 for the first, 0.738 for the second.

First: C27A G47C
Second: U26G A51C
The self-cleavage of the first is lower: 0.72 for the first, 0.838 for the second.

First: U26G A51U
Second: U26G A51G
The self-cleavage of the first is higher: 0.871 for the first, 0.787 for the second.

First: U26G A60U
Second: U26C G65A
The self-cleavage of the first is lower: 0.393 for the first, 0.713 for the second.

Going from U26C G65C to U26G U38C, the self-cleavage rises from 0.547 to 0.664.

First: U26G U38G
Second: U26G U38A
The self-cleavage of the first is lower: 0.171 for the first, 0.375 for the second.

Compared with C27A C63A, C27A U64A is higher in self-cleavage: 0.227 for the first, 0.286 for the second.

Going from C27A U64G to C27A G30A, the self-cleavage falls from 0.319 to 0.176.

Compared with C27A G30C, U26C U36A is higher in self-cleavage: 0.138 for the first, 0.153 for the second.

Compared with U26C U36C, U26G A59C is lower in self-cleavage: 0.88 for the first, 0.36 for the second.

Compared with U26G A59G, C27G A52G is lower in self-cleavage: 0.959 for the first, 0.24 for the second.

Going from C27G A52U to C27G A52C, the self-cleavage rises from 0.132 to 0.191.

Compared with U26G U44A, U26G U44G is lower in self-cleavage: 0.925 for the first, 0.811 for the second.

Compared with U26G U44C, C27A A52C is lower in self-cleavage: 0.866 for the first, 0.556 for the second.

First: U26G G56C
Second: U26G G56U
The self-cleavage of the first is lower: 0.356 for the first, 0.814 for the second.

Going from U26G G56A to C27G G56C, the self-cleavage falls from 0.729 to 0.135.

First: C27G U62A
Second: C27G U62C
The self-cleavage of the first is lower: 0.122 for the first, 0.257 for the second.

With C27G G30U the self-cleavage was 0.149.
